According to paper PMC5737966 (Nature structural & molecular biology, 2017):
Positions count from the first letter of the chain named. Names may count otherwise. Where two headings read alike, the source gives them in different places. Blank lines part the entries; values can stand above or below the molecule they belong to.

What was measured:
[1] = target: human β-cardiac short S1 (sS1) with a C-terminal GFP, wild type (human) (UniProt P12883); test: MST
[2] = target: heavy chain (HC) of the 2-hep HMM construct of human β-cardiac myosin; test: stoichiometry of the purified complex
actin = test: MST
[3] = target: R453C human β-cardiac sS1 with a C-terminal GFP (human, UniProt P12883 1-808, R453C); test: MST
[4] = target: R249Q human β-cardiac sS1 with a C-terminal GFP (human, UniProt P12883 1-808, R249Q); test: MST
[5] = target: R403Q human β-cardiac sS1 with a C-terminal GFP (human, UniProt P12883 1-808, R403Q); test: MST
[6] = target: T1, human β-cardiac short S1 (sS1) with a C-terminal GFP, wild type (human, UniProt P12883 1-808); test: MST
[7] = target: T1, human β-cardiac short S1 (sS1) with a …; test: MST; remark: listed apart in the source
[8] = target: MyBP-C (construct and phosphorylation state not told for these experiments) (human, UniProt Q14896 1-1274); test: MST
[9] = target: full-length recombinant human cardiac MyBP-C, nonphosphorylated (human, UniProt Q14896 1-1274); test: MST
Sequence of full-length recombinant human cardiac MyBP-C, nonphosphorylated (Q14896 whole entry): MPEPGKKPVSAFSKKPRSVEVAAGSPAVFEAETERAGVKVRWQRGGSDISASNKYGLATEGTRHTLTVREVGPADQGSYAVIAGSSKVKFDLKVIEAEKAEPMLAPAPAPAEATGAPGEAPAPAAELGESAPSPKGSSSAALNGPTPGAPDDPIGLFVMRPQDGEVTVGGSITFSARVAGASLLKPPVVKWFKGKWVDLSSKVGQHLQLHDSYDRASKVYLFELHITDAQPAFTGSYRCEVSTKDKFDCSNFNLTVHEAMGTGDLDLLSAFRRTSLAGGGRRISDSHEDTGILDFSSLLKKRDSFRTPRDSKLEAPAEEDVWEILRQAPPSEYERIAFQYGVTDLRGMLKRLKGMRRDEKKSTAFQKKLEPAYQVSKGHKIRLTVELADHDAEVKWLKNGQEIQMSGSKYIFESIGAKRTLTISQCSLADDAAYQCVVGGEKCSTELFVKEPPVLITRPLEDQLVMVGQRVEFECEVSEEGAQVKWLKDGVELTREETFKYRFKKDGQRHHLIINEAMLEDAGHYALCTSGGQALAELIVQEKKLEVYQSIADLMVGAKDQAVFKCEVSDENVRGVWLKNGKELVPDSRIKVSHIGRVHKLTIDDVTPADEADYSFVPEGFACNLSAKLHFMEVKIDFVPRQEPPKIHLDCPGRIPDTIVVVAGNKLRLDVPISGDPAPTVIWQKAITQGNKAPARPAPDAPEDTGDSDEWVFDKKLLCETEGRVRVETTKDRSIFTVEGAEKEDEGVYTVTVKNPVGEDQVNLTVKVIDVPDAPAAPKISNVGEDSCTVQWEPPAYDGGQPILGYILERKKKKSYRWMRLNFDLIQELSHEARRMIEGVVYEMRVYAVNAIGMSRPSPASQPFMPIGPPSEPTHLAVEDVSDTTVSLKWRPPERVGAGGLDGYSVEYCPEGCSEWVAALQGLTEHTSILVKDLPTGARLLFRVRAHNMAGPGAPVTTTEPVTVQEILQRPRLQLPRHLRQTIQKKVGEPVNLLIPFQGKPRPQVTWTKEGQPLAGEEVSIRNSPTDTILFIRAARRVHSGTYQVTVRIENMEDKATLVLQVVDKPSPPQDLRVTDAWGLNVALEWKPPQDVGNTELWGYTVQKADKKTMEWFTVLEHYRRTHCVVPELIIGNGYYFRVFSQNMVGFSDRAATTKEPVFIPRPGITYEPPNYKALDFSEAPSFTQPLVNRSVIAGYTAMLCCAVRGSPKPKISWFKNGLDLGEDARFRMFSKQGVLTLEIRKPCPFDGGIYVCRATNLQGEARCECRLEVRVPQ

Sequence of MyBP-C (construct and phosphorylation state not told for these experiments) (Q14896 whole entry): as above

Kd [1]: 0.25 µM
Molecule: actin (natural protein)

stoichiometry N [2]: 1
Molecule: human cardiac myosin essential light chain (ELC) (from UniProt P08590 1-195) (natural protein)

Kd (actin): 5 µM
Molecule: MyBP-C (construct and phosphorylation state not told for these experiments) (from UniProt Q14896 1-1274) (natural protein)

Kd [3]: > 90 µM
Kd [4]: > 300 µM
Kd [5]: 54 ± 4 µM
Kd [6]: 46 ± 7 µM
Kd [7]: 4 ± 1 µM
B1: proximal part of human cardiac myosin subfragment 2 (proximal S2), wild type (domain or fragment, UniProt P12883 841-966, looked up)
chain: KSAEREKEMASMKEEFTRLKEALEKSEARRKELEEKMVSLLQEKNDLQLQVQAEQDNLADAEERCDQLIKNKIQLEAKVKEMNERLEDEEEMNAELTAKKRKLEDECSELKRDIDDLELTLAKVEK

Kd [8]: ~7 µM
B2: proximal S2 of human cardiac myosin labelled with Cy5 (domain or fragment, UniProt P12883 841-966, looked up)
chain: B1 chain
modifications: Cy5 (site not stated)

Kd [6]: 59 ± 2 µM
B3: R870H mutant proximal S2 of human cardiac myosin (domain or fragment, UniProt P12883 841-966, looked up)
chain: B1 chain with R30H

stoichiometry N [2]: 1
B4: human cardiac myosin regulatory light chain (RLC) (natural protein)
chain: MAPKKAKKRAGGANSNVFSMFEQTQIQEFKEAFTIMDQNRDGFIDKNDLRDTFAALGRVNVKNEEIDEMIKEAPGPINFTVFLTMFGEKLKGADPEETILNAFKVFDPEGKGVLKADYVREMLTTQAERFSKEEVDQMFAAFPPDVTGNLDYKNLVHIITHGEEKD

Kd [9]: 17 ± 2 µM
B5: human β-cardiac short S1 (sS1) labelled with Cy5 on cysteine residues (domain or fragment, UniProt P12883 1-808, looked up)
chain: MGDSEMAVFGAAAPYLRKSEKERLEAQTRPFDLKKDVFVPDDKQEFVKAKIVSREGGKVTAETEYGKTVTVKEDQVMQQNPPKFDKIEDMAMLTFLHEPAVLYNLKDRYGSWMIYTYSGLFCVTVNPYKWLPVYTPEVVAAYRGKKRSEAPPHIFSISDNAYQYMLTDRENQSILITGESGAGKTVNTKRVIQYFAVIAAIGDRSKKDQSPGKGTLEDQIIQANPALEAFGNAKTVRNDNSSRFGKFIRIHFGATGKLASADIETYLLEKSRVIFQLKAERDYHIFYQILSNKKPELLDMLLITNNPYDYAFISQGETTVASIDDAEELMATDNAFDVLGFTSEEKNSMYKLTGAIMHFGNMKFKLKQREEQAEPDGTEEADKSAYLMGLNSADLLKGLCHPRVKVGNEYVTKGQNVQQVIYATGALAKAVYERMFNWMVTRINATLETKQPRQYFIGVLDIAGFEIFDFNSFEQLCINFTNEKLQQFFNHHMFVLEQEEYKKEGIEWTFIDFGMDLQACIDLIEKPMGIMSILEEECMFPKATDMTFKAKLFDNHLGKSANFQKPRNIKGKPEAHFSLIHYAGIVDYNIIGWLQKNKDPLNETVVGLYQKSSLKLLSTLFANYAGADAPIEKGKGKAKKGSSFQTVSALHRENLNKLMTNLRSTHPHFVRCIIPNETKSPGVMDNPLVMHQLRCNGVLEGIRICRKGFPNRILYGDFRQRYRILNPAAIPEGQFIDSRKGAEKLLSSLDIDHNQYKFGHTKVFFKAGLLGLLEEMRDERLSRIITRIQAQSRGVLARMEYKKLLERR
modifications: Cy5-labeled cysteine residues
